Among the data in patent US11155602B2, “Polypeptides targeting HIV fusion” (priority 2015, dated 2021) are EC50 values, retold here.

Positions count from the first letter of the chain named.

To fix the notation:
B1: 123 (protein)
chain: MGVSDVPRDLEVVAATPTSLLISWEYKVHPYRYYRITYGETGGNSPVQEFTVPSVLSTATISGLKPGVDYTITVYAVTRGVDSAPISINYRTEIDKPSQHHHHHH
modifications: Adnectin
B2: 175 (protein)
chain: MGHHHHHHGGSVSDVPRDLEVVAATPTSLLISWEYKVHYDRYYRITYGETGGNSPVQEFTVPSVLSTATISGLKPGVDYTITVYAVTYGVQSTPISINYRTEID
modifications: Adnectin
B3: 207 (protein)
chain: B2 chain with Y39P, D40Y, G48W, V90D, Q91D, T93A
modifications: Adnectin
B4: 189 (protein)
chain: B2 chain with Y39P, D40Y, V90K, Q91D, T93A
modifications: Adnectin
B5: 187 (protein)
chain: B2 chain with Y39P, D40Y, T60K, V90D, Q91D, T93A
modifications: Adnectin
B6: 200 (protein)
chain: B2 chain with Y39P, D40Y, G48T, V90D, Q91D, T93A
modifications: Adnectin
B7: 206 (protein)
chain: B2 chain with Y39P, D40Y, V90D, Q91D, T93K
modifications: Adnectin
B8: 192 (protein)
chain: B2 chain with Y39P, D40Y, V90T, Q91D, T93A
modifications: Adnectin
B9: 201 (protein)
chain: B2 chain with Y39P, D40Y, V90D, T93A
modifications: Adnectin
B10: 195 (protein)
chain: B2 chain with Y39P, D40Y, V90D, Q91D, T93Q
modifications: Adnectin
B11: 199 (protein)
chain: B2 chain with Y39P, D40Y, V90D, Q91D, T93Q
modifications: Adnectin
B12: 176 (protein)
chain: B2 chain with Y39H, V90I, Q91E, T93S
modifications: Adnectin
B13: 179 (protein)
chain: B2 chain with Y39P, D40Y, V90D, Q91D, T93R
modifications: Adnectin
B14: 193 (protein)
chain: B2 chain with Y39P, D40Y, V90K, Q91D, T93A
modifications: Adnectin
B15: 215 (protein)
chain: B2 chain with E34K, K36D, Y39P, D40Y, V90D, Q91D, T93A
modifications: Adnectin
B16: 188 (protein)
chain: B2 chain with Y39P, D40Y, V90D, Q91L, T93A
modifications: Adnectin
B17: 197 (protein)
chain: B2 chain with Y39P, D40Y, V90D, Q91D, T93G
modifications: Adnectin
B18: 211 (protein)
chain: B2 chain with Y39P, D40Y, Y88R, V90D, Q91D, T93A
modifications: Adnectin
B19: 190 (protein)
chain: B2 chain with Y39P, D40Y, V90A, Q91D, T93A
modifications: Adnectin
B20: 198 (protein)
chain: B2 chain with Y39P, D40Y, V90D, Q91D, T93A, N98Q
modifications: Adnectin
B21: 202 (protein)
chain: B2 chain with Y39P, D40Y, V90D, Q91D, T93K
modifications: Adnectin
B22: 194 (protein)
chain: B2 chain with Y39P, D40Y, V90D, Q91P, T93A
modifications: Adnectin
B23: 184 (protein)
chain: B2 chain with Y39P, D40Y, V90D, Q91V, T93A
modifications: Adnectin
B24: 186 (protein)
chain: B2 chain with Y39P, D40Y, V90E, Q91D, T93A
modifications: Adnectin
B25: 213 (protein)
chain: B2 chain with Y39P, D40Y, V90D, Q91D, T93W
modifications: Adnectin
B26: 209 (protein)
chain: B2 chain with Y39P, D40Y, V90D, Q91D
modifications: Adnectin
B27: 212 (protein)
chain: B2 chain with Y39P, D40Y, Y88H, V90D, Q91D, T93A
modifications: Adnectin
B28: 177 (protein)
chain: B2 chain with Y39P, D40Y, V90D, Q91D, T93A, N98P, E102P, I103G, D104G
modifications: Adnectin
B29: 183 (protein)
chain: B2 chain with Y39P, D40Y, V90I, Q91D, T93A
modifications: Adnectin
B30: 210 (protein)
chain: B2 chain with Y39P, D40Y, V90D, Q91D, T93S
modifications: Adnectin
B31: 180 (protein)
chain: B2 chain with Y39P, D40Y, V90K, Q91D, T93A
modifications: Adnectin
B32: 214 (protein)
chain: B2 chain with Y39P, D40Y, Y88H, V90D, Q91D, T93A
modifications: Adnectin
B33: 191 (protein)
chain: B2 chain with Y39P, D40Y, V90T, Q91D, T93A
modifications: Adnectin
B34: 208 (protein)
chain: B2 chain with Y39P, D40Y, V90D, Q91D
modifications: Adnectin
B35: 181 (protein)
chain: B2 chain with Y39P, D40Y, V90D, Q91H, T93A
modifications: Adnectin
B36: 196 (protein)
chain: B2 chain with Y39P, D40Y, V90D, Q91V, T93A
modifications: Adnectin
B37: 205 (protein)
chain: B2 chain with K36D, Y39P, D40Y, V90D, Q91D, T93A
modifications: Adnectin
B38: 182 (protein)
chain: B2 chain with Y39P, D40Y, V90D, T93A
modifications: Adnectin
B39: 203 (protein)
chain: B2 chain with Y39P, D40Y, V90D, Q91D, T93G
modifications: Adnectin
B40: 120 (protein)
chain: MGHHHHHHGGVSDVPRDLEVVAATPTSLLISWEYNVNPYRYYRITYGETGGNSPVQEFTVPSVLSSAQISGLKPGVDYTITVYAVTRGVDSAPISINYRTPGG
modifications: Adnectin
B41: 121 (protein)
chain: B40 chain with S66T, Q68E, R87Y, A92D
modifications: Adnectin
B42: 122 (protein)
chain: B40 chain with E33Q, N35K, N37H, S66T, Q68E
modifications: Adnectin

The assay deals with NL-Rluc virus. Kind of assay: Combinectin potency assay: antiviral EC50, NL-Rluc virus in MT-2 cells, luciferase readout. It is filed as cell-based, HIV-1. Conditions: Anti-N17 Adnectin, Table 3. The protocol: MT-2 cells, HEK 293T cells and the proviral DNA clone of […] were obtained from the NIH AIDS Research and Reference Reagent Program. MT-2 cells were propagated in RPMI 1640 medium supplemented with 10% heat-inactivated fetal bovine serum (FBS), 10 mM HEPES buffer pH 7.55, and 2 mM L-glutamine. HEK 293T cells were propagated in DMEM media supplemented with 10% heat-inactivated FBS, 10 mM HEPES buffer pH 7.55 and 2 mM L-glutamine. Recombinant NL-Rluc virus, in which a section of the nef gene from the proviral clone of NL4-3 was replaced with the Renilla luciferase gene, was constructed at Bristol-Myers Squibb. The replication-competent virus was harvested 3 days after transfection of HEK 293T cells with the modified pNL-Rluc proviral clone. Transfections were performed using Lipofectamine Plus (Invitrogen, Carlsbad, Calif.), according to manufacturer's instruction. Virus was titered in MT-2 cells using luciferase enzyme activity as a biomarker. The NL-Rluc virus used to infect MT-2 cells a multiplicity of 0.01 for 1 hour before adding to the peptides in 96-well plates. Peptides were serially diluted three-fold and 11 concentrations were plated in triplicate. After 4-5 days of incubation, cells were processed and quantitated for virus growth by the amount of expressed luciferase. Luciferase was quantitated using the Dual Luciferase kit from Promega (Madison, Wis.), with modifications to the manufacturer's protocol. The diluted Passive Lysis solution was pre-mixed with the re-suspended Luciferase Assay Reagent and then re-suspended in STOP & GLO® Substrate (2:1:1 ratio). A total of […] of the mixture was added to each aspirated well on assay plates and luciferase activity was measured immediately on a Wallac TriLux (Perkin-Elmer, Waltham, Mass.). The 50% effective concentration (EC50) was calculated by comparing the amount of luciferase produced in the presence of inhibitory peptide compared to wells where no peptide was added.
For the molecule B1, the EC50 (commonly the concentration needed to bring the measured effect to its halfway point) came out at 0.028 µM.
For the molecule B2, the EC50 came to 0.005 µM.
Then B3, with above 1 µM; and B4, with above 1 µM.
For the molecule B5, the EC50 worked out at 0.086 µM.
On to B6, for which the EC50 was above 1 µM.
Then B7, with 0.237 µM; and B8, with 2.83 µM.
As for B9, the figure is 0.02 µM.
B10: the EC50 is above 1 µM.
Regarding B11, the EC50 is above 1 µM.
With B12, the EC50 is above 1 µM.
Turning to B13, the EC50 is above 1 µM.
B14: the EC50 came out at 0.252 µM.
B15: the EC50 was above 1 µM.
Take B16: the EC50 was determined as 0.086 µM.
Turning to B17, the EC50 was determined as 0.081 µM.
Turning to B18, the EC50 came to 0.631 µM.
Consider B19, for which the EC50 is above 1 µM.
As for B20, the figure is 2.83 µM; as for B21, above 1 µM; as for B22, above 1 µM.
Turning to B23, the 50% effective concentration (EC50) came to 0.02 µM.
As for B24, the figure is 2.83 µM; as for B25, above 1 µM.
In the case of B26, the EC50 was 0.02 µM.
As for B27, the figure is 0.086 µM; as for B28, 0.252 µM; as for B29, 0.02 µM.
Turning to B30, the EC50 was 0.143 µM.
As for B31, the figure is above 1 µM; as for B32, above 1 µM; as for B33, above 1 µM.
Then B34, with above 1 µM; and B35, with 0.631 µM; and B36, with 0.086 µM.
As for B37, the figure is 0.086 µM; as for B38, above 1 µM.
Turning to B39, the EC50 came to 0.086 µM.
As for B40, the figure is 0.039 µM; as for B41, 0.057 µM; as for B42, 0.006 µM.
